IC50 data for 1 molecule are collected here from US20160039921A1 (published 2016).

One may read the IC50 as the midpoint of a concentration-inhibition curve.

This assay addresses T1, recombinant human VEGF165 protein (human, UniProt P15692 27-191).
T1 chain: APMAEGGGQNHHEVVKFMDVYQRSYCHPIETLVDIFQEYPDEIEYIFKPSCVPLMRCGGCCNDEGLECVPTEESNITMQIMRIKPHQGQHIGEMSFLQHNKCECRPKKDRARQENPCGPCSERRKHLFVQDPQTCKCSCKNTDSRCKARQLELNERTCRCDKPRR
As to the kind of experiment: competitive ELISA (blocking of biotin-VEGF binding to VEGFR1).

B1: murine PV19 monoclonal antibody (antibody, V domains shown)
VH: QPGGAFWMCVSGGKVTISCKASGYSFTNSGINWVKQAPGKGLKWMGWINTYTGEPTYADDFKGRFAFSLETSASSAYLQINNLKNEDTATYFCARFGDGYYWFFDVWGAGTTVTVS
VL: DIVMSQSPSSLAVSAGEKVTLSCKSSQSLLNSRTRKNFLAWYQQKPGQSPKLLIYWASTRESGVPDRFTGSGSGTDFTLTISSVQAEDLAVYYCKQSYNLYTFGGGPT
For the molecule B1, the 50% inhibitory concentration (IC50) is below 1 nM.
